Experimental findings from patent US20190381184A1 (UNIVERSITY OF NORTH CAROLINA AT CHAPEL HILL, published 2019) are described below.

Test [1] concerns the target PD-L1. In words: Octet binding kinetics. On the technique in general: BLI is a label-free optical method that tracks binding on a fibre tip over time.
The target of test [2] is PD-L1. In words: Octet (BLI) binding kinetics of the trivalent PD-L1 trap with PD-L1.
In test [3] the target is PD-L1. In words: Octet (BLI); compared with the endogenous PD-1/PD-L1 interaction.

Chain of PD-L1 (chain, as listed by the source): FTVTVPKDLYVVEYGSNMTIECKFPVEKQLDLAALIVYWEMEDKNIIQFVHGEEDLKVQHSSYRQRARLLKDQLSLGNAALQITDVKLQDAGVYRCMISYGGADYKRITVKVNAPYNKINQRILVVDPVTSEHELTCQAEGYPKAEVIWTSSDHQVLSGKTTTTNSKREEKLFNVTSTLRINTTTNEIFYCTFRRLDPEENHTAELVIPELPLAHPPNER

B1: trivalent PD-L1 trap (PD-1 extracellular domain - flexible linker - CMP-1 trimerization domain fusion, self-assembled trimer) (other)
chain: GSGPPTFSPALLVVTEGDNATFTCSFSNTSESFVLNWYRMSPSNQTDKLAAFPEDRSQPGQDSRFRVTQLPNGRDFHMSVVRARRNDSGTYLCGAISLAPKAQIKESLRAELRVTERRAEGPQPQPKPQPKPEPEPQPQGGSEEDPCACESILKFEAKVEGLLQALTRKLEAVSGRLAVLENRIIAAAGAPVPYPDPLEPRGGSHHHHHH
notes: also called trimeric trap; trivalent protein
The Kd is the free concentration of one partner at which half of the binding sites on the other are occupied at equilibrium, for simple one-to-one binding. For the molecule B1, the values for the dissociation constant (Kd) in test [1] and in test [2] were around 0.0162 nM and around 0.016 nM, respectively. Further, the “fold higher than between endogenous PD-1 and PD-L1” value in test [3] is 10000 fold.
